{
  "source": "patent US20160193316A1",
  "about": "(priority 1994, published 2016)",
  "key": {"[1]": {"target": "T1, DRB1*0301 (DR3) (Homo sapiens, UniProt P01903+P01911, A100K/A102G/A103R/A169T/F55Y/I96L/K41T/L162R/M171V/P40S/Q125H/Q178H/Q39Y/R42S/S66N/T106N/T262R/W38E/Y61H)", "T1 construct": "endogenous in cells; host or cells: MAT", "assay": "HLA class II peptide binding assay (pH 4.5)", "conditions": "unit not given"}, "[2]": {"target": "T2, HLA-A*0301 (Homo sapiens, UniProt P04439)", "T2 construct": "endogenous in cells; host or cells: GM3107", "assay": "HLA class I peptide binding assay", "conditions": "for A*0301 (binding information): Table XVI, Malaria A3 motif peptides; for A*301 (binding data): Malaria A03 supermotif peptides"}, "[3]": {"target": "T3, DRB1*0101 (DR1) (Homo sapiens, UniProt P01903+P01911, A100R/D57E/F55L/F60I/F76Y/I96L/L162R/M171V/P40L/Q125E/R42F/V115G/Y59C)", "T3 construct": "endogenous in cells; host or cells: LG2", "T3 sequence (P01903 26-254 partner, other chains not shown)": "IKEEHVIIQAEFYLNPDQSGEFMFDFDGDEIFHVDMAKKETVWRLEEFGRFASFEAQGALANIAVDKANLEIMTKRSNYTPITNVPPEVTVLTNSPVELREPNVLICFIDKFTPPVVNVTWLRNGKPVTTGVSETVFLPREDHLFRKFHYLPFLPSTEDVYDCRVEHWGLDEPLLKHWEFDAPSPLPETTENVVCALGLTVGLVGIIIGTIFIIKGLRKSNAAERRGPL", "assay": "HLA class II peptide binding assay", "conditions": "Table XIXb, Malaria Super Motif Peptides With Binding Data; DR1"}, "[4]": {"target": "T4, DRB1*0701 (DR7) (Homo sapiens, UniProt P01903+P01911, A100R/A102G/A103Q/D57E/D86V/E43K/F76Y/K127E/L162R/M171V/P40G/Q125H/Q99D/R33Q/R42Y/R54Q/S133A/S66F/T210M/V115G/Y107V/Y59L/Y89S)", "T4 construct": "endogenous in cells; host or cells: Pitout", "assay": "biochemical", "type": "binding"}, "[5]": {"target": "T5, DRB1*0401 (DR4w4) (Homo sapiens, UniProt P01903+P01911, A100K/A169T/F76Y/I96L/K127E/L162R/M171V/N62H/P40V/Q125Y/R42H/S133A/S149N/S66Y/V115G/V209L/W38E)", "T5 construct": "endogenous in cells; host or cells: Preiss", "T5 sequence (P01903 26-254 partner, other chains not shown)": "as above", "assay": "HLA class II peptide binding assay", "conditions": "for DR4w4 binding data: Table XIXb"}, "[6]": {"target": "T6, DRB1*0802 (DR8w2) (Homo sapiens, UniProt P01903+P01911, A100R/A103L/A169T/F76Y/H45Y/I96F/K41T/L162R/M171V/P40S/Q125H/Q178H/Q39Y/Q99D/R218S/R42G/S66Y/V115G/W38E)", "T6 construct": "endogenous in cells; host or cells: OLL", "assay": "biochemical", "type": "binding"}, "[7]": {"target": "T7, DRB1*1201 (DR5w12) (Homo sapiens, UniProt P01903+P01911, A100R/A169T/D57E/D86V/F55L/H45Y/K41T/L162R/M171V/P40S/Q125H/Q178H/Q39Y/Q99D/R42G/S66L/T262R/V114A/V67L/W38E/Y59H/Y61H/Y89S)", "T7 construct": "endogenous in cells; host or cells: Herluf", "assay": "HLA class II peptide binding assay", "conditions": "Table XIXb; DR5w12"}, "[8]": {"target": "T8, DRB1*1101 (DR5w11) (Homo sapiens, UniProt P01903+P01911, A100R/A169T/A87E/I96F/K41T/L162R/M171V/P40S/Q125H/Q178H/Q39Y/Q99D/R42S/S66Y/T262R/V115G/W38E)", "T8 construct": "endogenous in cells; host or cells: Sweig", "T8 sequence (P01903 26-254, other chains not shown)": "as the sequence (P01903 26-254 partner, other chains not shown) above", "assay": "biochemical", "type": "binding"}, "[9]": {"target": "T9, DRB5*0101 (DR2w2β2) (Homo sapiens, UniProt P01903+Q30154)", "T9 construct": "expressed in transfected cells; host or cells: L416.3 (fibroblasts) or GM3107", "type": "binding"}, "[10]": {"target": "T10, DRB1*0405 (DR4w15) (Homo sapiens, UniProt P01903+P01911, A100R/A169T/D86S/F76Y/I96L/K127E/L162R/M171V/N62H/P40V/Q125Y/R42H/S133A/S149N/S66Y/V115G/V209L/W38E)", "T10 construct": "endogenous in cells; host or cells: KT3", "assay": "HLA class II peptide binding assay", "conditions": "Table XIXb; DR4w15"}, "[11]": {"conditions": "DR3a motif peptides, exemplary 15-mer containing the core sequence"}, "[12]": {"conditions": "HLA-A*0301 binding value, unit not given"}, "[13]": {"conditions": "binding value to HLA-A*0301, unit not given"}, "[14]": {"conditions": "binding value for HLA-A*0301, unit not given"}},
  "data": [
    {"sequence": "VTPEQPQGD", "values": [
      {"measurement": "DR3 binding information", "setting": "[1]; [11]", "value": -0.0033}
    ]},
    {"sequence": "VEVNKRKSK", "values": [
      {"measurement": "DR3 binding information", "setting": "[1]; Malaria DR3b motif peptides", "value": 0.0880}
    ]},
    {"sequence": "NSEKDFIKK", "values": [
      {"measurement": "A*0301 (binding information)", "setting": "[2]; [12]", "value": 0.0002}
    ]},
    {"sequence": "IKPEQKEDK", "values": [
      {"measurement": "DR3 binding information", "setting": "[1]; Malaria DR3b motif peptides", "value": -0.0033}
    ]},
    {"sequence": "IEKTNRESI", "values": [
      {"measurement": "DR3 binding information", "setting": "[1]; Malaria DR3b motif peptides", "value": 0.1300}
    ]},
    {"sequence": "VDESEDITK", "values": [
      {"measurement": "A*0301 (binding information)", "setting": "[2]; [12]", "value": 0.0002}
    ]},
    {"sequence": "LEQDRLAKE", "values": [
      {"measurement": "DR3 binding information", "setting": "[1]; [11]", "value": 0.0038}
    ]},
    {"sequence": "VPCGKGTISR", "values": [
      {"measurement": "A*301 (binding data)", "setting": "[2]; Table IX", "value": 0.0004}
    ]},
    {"sequence": "QSQDNNONRH (QSQDNNGNRH)", "values": [
      {"measurement": "A*0301 (binding information)", "setting": "[2]; [13]", "value": 0.0004}
    ]},
    {"sequence": "QVRICHLNDR", "values": [
      {"measurement": "A*0301 (binding information)", "setting": "[2]; [13]", "value": 0.0005}
    ]},
    {"sequence": "IKSNLRSGS", "values": [
      {"measurement": "DR3 binding information", "setting": "[1]; Malaria DR3b motif peptides", "value": 0.0050}
    ]},
    {"sequence": "VGLVLYNIEK", "values": [
      {"measurement": "A*0301 (binding information)", "setting": "[2]; [14]", "value": 0.0005}
    ]},
    {"sequence": "GTGSGVSSKX", "values": [
      {"measurement": "A*0301 (binding information)", "setting": "[2]; [14]", "value": 0.0071}
    ]},
    {"sequence": "LHSDASKNK", "values": [
      {"measurement": "DR3 binding information", "setting": "[1]; [11]", "value": -0.0033}
    ]},
    {"sequence": "LDNERKQSD", "values": [
      {"measurement": "DR3 binding information", "setting": "[1]; Malaria DR3b motif peptides", "value": -0.0130}
    ]},
    {"sequence": "VQYDNFQDE", "values": [
      {"measurement": "DR3 binding information", "setting": "[1]; [11]", "value": -0.0033}
    ]},
    {"sequence": "FDLFLVNGR", "values": [
      {"measurement": "DR1 binding data", "setting": "[3]", "value": 0.0042},
      {"measurement": "DR7 binding data", "setting": "[4]", "value": 0.0470},
      {"measurement": "DR4w4 binding data", "setting": "[5]", "value": 0.0036}
    ]},
    {"sequence": "QSKLEQERR", "values": [
      {"measurement": "A*301 (binding data)", "setting": "[2]; binding value, no unit given", "value": 0.0002}
    ]},
    {"sequence": "YKFVVPGAA", "values": [
      {"measurement": "DR8w2 binding data", "setting": "[6]", "value": 2.5000},
      {"measurement": "DR5w12 binding data", "setting": "[7]", "value": 0.3500},
      {"measurement": "DR4w4 binding data", "setting": "[5]", "value": 1.0000}
    ]},
    {"sequence": "LVTVFLIFF", "values": [
      {"measurement": "DR1 binding data", "setting": "[3]", "value": 0.0001},
      {"measurement": "DR7 binding data", "setting": "[4]", "value": 0.0010},
      {"measurement": "DR4w4 binding data", "setting": "[5]", "value": 0.0030}
    ]},
    {"sequence": "DLERTICASK", "values": [
      {"measurement": "A*301 (binding data)", "setting": "[2]; binding value, no unit given", "value": 0.0001}
    ]},
    {"sequence": "YDNAGINLY", "values": [
      {"measurement": "DR1 binding data", "setting": "[3]", "value": 0.0003},
      {"measurement": "DR7 binding data", "setting": "[4]", "value": -0.0003},
      {"measurement": "DR5w11 binding data", "setting": "[8]", "value": -0.0002},
      {"measurement": "DR2w2β2 binding data", "setting": "[9]", "value": -0.0005},
      {"measurement": "DR8w2 binding data", "setting": "[6]", "value": -0.0003},
      {"measurement": "DR5w12 binding data", "setting": "[7]", "value": 0.0001},
      {"measurement": "DR4w15 binding data", "setting": "[10]", "value": -0.0009},
      {"measurement": "DR4w4 binding data", "setting": "[5]", "value": -0.0009}
    ]},
    {"sequence": "LSFINSYEKTK", "values": [
      {"measurement": "A*0301 (binding information)", "setting": "[2]; [12]", "value": 0.0004}
    ]},
    {"sequence": "LPQDNRGNS", "values": [
      {"measurement": "DR3 binding information", "setting": "[1]; Malaria DR3b motif peptides", "value": -0.0033}
    ]},
    {"sequence": "YKNDKQVNK", "values": [
      {"measurement": "DR3 binding information", "setting": "[1]; [11]", "value": -0.0033}
    ]},
    {"sequence": "ITINVEGRR", "values": [
      {"measurement": "A*301 (binding data)", "setting": "[2]; binding value, no unit given", "value": 0.0002}
    ]},
    {"sequence": "ESLAEKTNIC", "values": [
      {"measurement": "A*0301 (binding information)", "setting": "[2]; [14]", "value": 0.0001}
    ]},
    {"sequence": "VLYNTEKGRS", "values": [
      {"measurement": "A*301 (binding data)", "setting": "[2]; binding value, no unit given", "value": 0.0110}
    ]},
    {"sequence": "YREEVCNDE", "values": [
      {"measurement": "DR3 binding information", "setting": "[1]; [11]", "value": -0.0033}
    ]},
    {"sequence": "NSEKDETIK", "values": [
      {"measurement": "A*301 (binding data)", "setting": "[2]; binding value, no unit given", "value": 0.0002}
    ]},
    {"sequence": "ISHEKTNR", "values": [
      {"measurement": "A*0301 (binding information)", "setting": "[2]; [12]", "value": 0.0001}
    ]},
    {"sequence": "VLYNIEKGRH", "values": [
      {"measurement": "A*0301 (binding information)", "setting": "[2]; [14]", "value": 0.0029}
    ]},
    {"sequence": "VLNELNYDN", "values": [
      {"measurement": "DR3 binding information", "setting": "[1]; [11]", "value": -0.0033}
    ]},
    {"sequence": "SDASICNKEK", "values": [
      {"measurement": "A*0301 (binding information)", "setting": "[2]; [13]", "value": 0.0005}
    ]},
    {"sequence": "LANEKLQEQ", "values": [
      {"measurement": "DR3 binding information", "setting": "[1]; [11]", "value": -0.0033}
    ]},
    {"sequence": "KILSVFFLA", "values": [
      {"measurement": "A*0301 (binding information)", "setting": "[2]; [14]", "value": 0.1400}
    ]},
    {"sequence": "FDGDNEILQ", "values": [
      {"measurement": "DR3 binding information", "setting": "[1]; [11]", "value": 0.0640}
    ]},
    {"sequence": "FNKESLAEK", "values": [
      {"measurement": "DR3 binding information", "setting": "[1]; [11]", "value": 0.0040}
    ]},
    {"sequence": "KSLYDEIHK", "values": [
      {"measurement": "A*0301 (binding information)", "setting": "[2]; [12]", "value": 0.0005}
    ]},
    {"sequence": "FLVNGRDVQ", "values": [
      {"measurement": "DR3 binding information", "setting": "[1]; Malaria DR3b motif peptides", "value": -0.0033}
    ]},
    {"sequence": "VPSDVPKNP", "values": [
      {"measurement": "DR4w4 binding information", "setting": "[5]; DR3a motif peptides, unit not given, exemplary 15-mer containing the core sequence", "value": -0.0130}
    ]},
    {"sequence": "MTTNVEGRR", "values": [
      {"measurement": "A*0301 (binding information)", "setting": "[2]; [12]", "value": 0.0002}
    ]},
    {"sequence": "IYKELEDLI", "values": [
      {"measurement": "DR3 binding information", "setting": "[1]; [11]", "value": -0.0033}
    ]}
  ]
}
